Here are results for two molecules from paper doi:10.1101/2021.10.29.466147 (bioRxiv, 2021).

Data set [1] deals with condensin holo complex Smc2-Smc4-Brn1-Ycs4-Ycg1, Walker B EQ mutant (Saccharomyces cerevisiae, UniProt P38989;Q12267;P38170;Q06156;Q06680 1-1170;1-1418;1-754;1-1176;1-1035, E1113Q;E1352Q). The data set is described as follows: cryo-EM.
In data set [2] the target is T1, Ycs4, HEAT-repeat subunit I of S. cerevisiae condensin (S. cerevisiae, UniProt Q06156 1-1176).
T1 sequence: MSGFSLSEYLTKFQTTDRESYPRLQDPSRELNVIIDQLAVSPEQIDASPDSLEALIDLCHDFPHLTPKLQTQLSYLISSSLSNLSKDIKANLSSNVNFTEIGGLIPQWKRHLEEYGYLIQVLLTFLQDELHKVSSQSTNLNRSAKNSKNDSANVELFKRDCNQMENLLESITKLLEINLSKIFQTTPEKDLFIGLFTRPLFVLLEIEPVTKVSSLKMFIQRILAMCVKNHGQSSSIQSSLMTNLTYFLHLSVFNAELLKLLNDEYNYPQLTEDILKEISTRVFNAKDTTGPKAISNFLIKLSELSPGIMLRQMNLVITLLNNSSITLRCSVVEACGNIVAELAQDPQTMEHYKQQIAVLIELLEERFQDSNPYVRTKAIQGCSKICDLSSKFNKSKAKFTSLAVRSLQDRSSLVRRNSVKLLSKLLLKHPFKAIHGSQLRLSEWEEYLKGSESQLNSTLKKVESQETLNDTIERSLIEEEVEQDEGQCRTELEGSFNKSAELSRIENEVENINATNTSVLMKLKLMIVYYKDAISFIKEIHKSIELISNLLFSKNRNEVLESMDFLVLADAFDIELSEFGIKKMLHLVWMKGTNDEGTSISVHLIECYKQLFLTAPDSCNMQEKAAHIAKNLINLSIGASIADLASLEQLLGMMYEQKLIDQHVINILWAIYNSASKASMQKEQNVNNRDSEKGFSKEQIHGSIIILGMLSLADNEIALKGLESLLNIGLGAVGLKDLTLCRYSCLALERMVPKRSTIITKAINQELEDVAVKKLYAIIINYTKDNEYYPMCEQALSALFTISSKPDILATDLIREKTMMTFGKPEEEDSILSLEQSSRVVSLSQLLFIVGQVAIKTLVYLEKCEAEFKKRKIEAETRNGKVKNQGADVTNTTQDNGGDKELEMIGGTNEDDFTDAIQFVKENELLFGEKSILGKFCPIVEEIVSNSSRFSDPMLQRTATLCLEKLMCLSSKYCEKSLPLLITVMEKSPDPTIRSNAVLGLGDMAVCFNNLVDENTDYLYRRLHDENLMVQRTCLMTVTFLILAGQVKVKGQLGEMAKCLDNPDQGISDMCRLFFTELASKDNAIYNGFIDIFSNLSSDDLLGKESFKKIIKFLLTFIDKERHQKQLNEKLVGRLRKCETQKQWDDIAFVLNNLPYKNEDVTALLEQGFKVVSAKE
Put plainly: cryo-EM structure.

Data set [3] concerns the target T2, Ycg1, HEAT-repeat subunit II of S. cerevisiae condensin (S. cerevisiae, UniProt Q06680 1-1035).
T2 sequence (looked up): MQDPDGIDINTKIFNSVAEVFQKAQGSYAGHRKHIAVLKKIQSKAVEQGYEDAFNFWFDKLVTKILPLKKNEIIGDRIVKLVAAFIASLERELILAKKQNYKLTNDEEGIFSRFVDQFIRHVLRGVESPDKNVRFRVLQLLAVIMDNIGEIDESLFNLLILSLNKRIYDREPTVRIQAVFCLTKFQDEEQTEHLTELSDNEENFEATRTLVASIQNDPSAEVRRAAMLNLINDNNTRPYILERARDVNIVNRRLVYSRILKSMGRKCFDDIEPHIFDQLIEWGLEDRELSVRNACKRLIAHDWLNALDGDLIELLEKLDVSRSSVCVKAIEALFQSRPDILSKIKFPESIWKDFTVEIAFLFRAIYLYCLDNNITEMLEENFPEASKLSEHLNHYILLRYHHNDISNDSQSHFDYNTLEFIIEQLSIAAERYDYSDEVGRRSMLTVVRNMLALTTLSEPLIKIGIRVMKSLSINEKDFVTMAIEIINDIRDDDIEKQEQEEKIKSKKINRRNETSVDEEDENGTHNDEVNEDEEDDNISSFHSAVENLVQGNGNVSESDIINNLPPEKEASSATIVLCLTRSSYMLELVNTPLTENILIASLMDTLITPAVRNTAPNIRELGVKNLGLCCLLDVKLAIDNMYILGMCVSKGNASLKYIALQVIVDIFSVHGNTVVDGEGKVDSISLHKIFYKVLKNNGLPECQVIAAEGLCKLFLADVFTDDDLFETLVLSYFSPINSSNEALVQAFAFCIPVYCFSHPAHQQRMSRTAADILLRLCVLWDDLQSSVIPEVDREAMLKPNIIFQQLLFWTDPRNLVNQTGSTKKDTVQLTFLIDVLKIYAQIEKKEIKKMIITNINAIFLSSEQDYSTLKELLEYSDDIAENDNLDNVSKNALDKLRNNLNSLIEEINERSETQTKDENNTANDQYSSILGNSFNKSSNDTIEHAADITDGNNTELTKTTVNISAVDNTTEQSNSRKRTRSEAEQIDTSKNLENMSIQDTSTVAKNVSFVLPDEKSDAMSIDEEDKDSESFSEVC
The data set is described as follows: co-purification.

Sequence of condensin holo complex Smc2-Smc4-Brn1-Ycs4-Ycg1, Walker B EQ mutant (P38989 whole entry E1113Q, chain 1 of 2): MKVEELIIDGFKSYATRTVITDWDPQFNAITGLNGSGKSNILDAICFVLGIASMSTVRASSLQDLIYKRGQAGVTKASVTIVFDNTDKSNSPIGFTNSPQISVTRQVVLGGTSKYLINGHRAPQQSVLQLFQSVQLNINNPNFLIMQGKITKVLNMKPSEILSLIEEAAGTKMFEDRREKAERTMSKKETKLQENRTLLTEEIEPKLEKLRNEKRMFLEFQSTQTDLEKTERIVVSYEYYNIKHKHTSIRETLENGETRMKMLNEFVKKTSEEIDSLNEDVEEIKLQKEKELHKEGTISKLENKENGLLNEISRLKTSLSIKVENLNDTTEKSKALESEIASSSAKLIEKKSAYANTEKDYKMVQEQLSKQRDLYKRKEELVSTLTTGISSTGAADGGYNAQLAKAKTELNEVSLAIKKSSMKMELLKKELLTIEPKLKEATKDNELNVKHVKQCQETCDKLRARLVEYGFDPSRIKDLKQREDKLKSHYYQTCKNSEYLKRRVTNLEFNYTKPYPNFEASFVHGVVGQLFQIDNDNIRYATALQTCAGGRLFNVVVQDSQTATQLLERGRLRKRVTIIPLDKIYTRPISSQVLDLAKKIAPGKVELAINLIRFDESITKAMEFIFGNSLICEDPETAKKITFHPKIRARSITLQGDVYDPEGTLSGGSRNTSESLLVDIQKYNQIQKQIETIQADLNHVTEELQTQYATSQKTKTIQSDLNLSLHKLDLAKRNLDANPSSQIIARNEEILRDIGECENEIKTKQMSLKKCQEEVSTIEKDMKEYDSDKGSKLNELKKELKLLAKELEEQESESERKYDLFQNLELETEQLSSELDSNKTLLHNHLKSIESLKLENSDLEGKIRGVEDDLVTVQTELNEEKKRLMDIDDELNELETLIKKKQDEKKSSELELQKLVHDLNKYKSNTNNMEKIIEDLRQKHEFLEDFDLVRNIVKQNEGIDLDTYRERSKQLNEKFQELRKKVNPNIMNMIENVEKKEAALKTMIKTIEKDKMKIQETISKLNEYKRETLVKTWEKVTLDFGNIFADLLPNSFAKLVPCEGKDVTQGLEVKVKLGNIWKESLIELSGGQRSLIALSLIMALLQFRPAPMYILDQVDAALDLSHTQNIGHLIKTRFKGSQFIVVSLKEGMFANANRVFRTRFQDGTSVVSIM
Sequence of condensin holo complex Smc2-Smc4-Brn1-Ycs4-Ycg1, Walker B EQ mutant (Q12267 whole entry E1352Q, chain 2 of 2): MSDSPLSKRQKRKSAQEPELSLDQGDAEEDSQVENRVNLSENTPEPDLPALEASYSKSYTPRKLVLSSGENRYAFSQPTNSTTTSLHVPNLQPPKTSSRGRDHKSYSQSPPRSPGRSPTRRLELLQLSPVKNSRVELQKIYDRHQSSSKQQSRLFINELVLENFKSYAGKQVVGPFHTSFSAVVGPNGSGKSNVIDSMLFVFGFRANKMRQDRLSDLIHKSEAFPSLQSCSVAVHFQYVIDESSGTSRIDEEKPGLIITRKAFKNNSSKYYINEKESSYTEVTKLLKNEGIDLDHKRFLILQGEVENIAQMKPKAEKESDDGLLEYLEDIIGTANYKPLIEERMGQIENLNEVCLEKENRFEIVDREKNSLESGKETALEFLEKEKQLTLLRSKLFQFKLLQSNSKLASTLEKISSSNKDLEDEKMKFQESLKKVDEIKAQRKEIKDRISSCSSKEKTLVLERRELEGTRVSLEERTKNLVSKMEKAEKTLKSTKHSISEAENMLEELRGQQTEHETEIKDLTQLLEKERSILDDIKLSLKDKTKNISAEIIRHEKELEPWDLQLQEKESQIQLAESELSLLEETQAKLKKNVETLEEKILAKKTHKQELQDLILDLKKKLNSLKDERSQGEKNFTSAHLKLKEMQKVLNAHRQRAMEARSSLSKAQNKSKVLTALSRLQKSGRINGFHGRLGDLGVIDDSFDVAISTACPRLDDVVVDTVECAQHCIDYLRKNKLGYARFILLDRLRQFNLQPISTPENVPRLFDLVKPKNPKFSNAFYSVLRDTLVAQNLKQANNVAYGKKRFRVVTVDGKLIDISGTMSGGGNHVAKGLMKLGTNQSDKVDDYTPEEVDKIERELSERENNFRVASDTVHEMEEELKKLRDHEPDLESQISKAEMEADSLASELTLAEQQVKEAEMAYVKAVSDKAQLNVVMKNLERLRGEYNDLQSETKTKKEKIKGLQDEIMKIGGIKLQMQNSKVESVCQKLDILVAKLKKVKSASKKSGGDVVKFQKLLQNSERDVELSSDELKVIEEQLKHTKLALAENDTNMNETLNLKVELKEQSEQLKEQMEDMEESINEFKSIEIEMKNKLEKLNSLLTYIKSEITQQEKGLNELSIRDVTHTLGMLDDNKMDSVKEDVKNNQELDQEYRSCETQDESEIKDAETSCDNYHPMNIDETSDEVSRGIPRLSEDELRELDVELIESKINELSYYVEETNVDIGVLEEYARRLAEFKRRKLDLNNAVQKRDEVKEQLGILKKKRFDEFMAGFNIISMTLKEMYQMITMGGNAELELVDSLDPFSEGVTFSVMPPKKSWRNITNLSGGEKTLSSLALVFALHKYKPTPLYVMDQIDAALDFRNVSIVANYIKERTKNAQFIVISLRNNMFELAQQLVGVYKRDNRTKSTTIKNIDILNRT

B1: 50-bp dsDNA (cryo-EM) (dsDNA)
DNA 1: GTTGACAGTGTCGCAACCTGCACAGGCAAGCTGCTGAGTCTGGTGTAGAC
DNA 2: GTCTACACCAGACTCAGCAGCTTGCCTGTGCAGGTTGCGACACTGTCAAC
On to B1, for which the binding result in data set [1] was “binds”.

B2: Brn1-His12-HA3, kleisin subunit of S. cerevisiae condensin (natural protein)
chain: MTTQLRYENNDDDERVEYNLFTNRSTMMANFEEWIKMATDNKINSRNSWNFALIDYFYDLDVLKDGENNINFQKASATLDGCIKIYSSRVDSVTTETGKLLSGLAQRKTNGASNGDDSNGGNGEGLGGDSDEANIEIDPLTGMPISNDPDVNNTRRRVYNRVLETTLVEFETIKMKELDQELIIDPLFKKALVDFDEGGAKSLLLNTLNIDNTARVIFDASIKDTQNVGQGKLQRKEEELIERDSLVDDENEPSQSLISTRNDSTVNDSVISAPSMEDEILSLGMDFIKFDQIAVCEISGSIEQLRNVVEDINQAKDFIENVNNRFDNFLTEEELQAAVPDNAEDDSDGFDMGMQQELCYPDENHDNTSHDEQDDDNVNSTTGSIFEKDLMAYFDENLNRNWRGREHWKVRNFKKANLVNKESDLLEETRTTIGDTTDKNTTDDKSMDTKKKHKQKKVLEIDFFKTDDSFEDKVFASKGRTKIDMPIKNRKNDTHYLLPDDFHFSTDRITRLFIKPGQKMSLFSHRKHTRGDVSSGLFEKSTVSANHSNNDIPTIADEHFWADNYERKEQEEKEKEQSKEVGDVVGGALDNPFEDDMDGVDFNQAFEGTDDNEEASVKLDLQDDEDHKFPIRENKVTYSRVSKKVDVRRLKKNVWRSINNLIQEHDSRKNREQSSNDSETHTEDESTKELKFSDIIQGISKMYSDDTLKDISTSFCFICLLHLANEHGLQITHTENYNDLIVNYEDLATTQAAS
For B2, the binding result in data set [2] and in data set [3] was “binds” throughout.
